Assay results as given in patent US20110059095A1 (Regeneron, published 2011).
Where no end group is shown, it is not given here. The star is where a group is joined. Biotin = O=C1N[C@H]2[C@H](CS[C@H]2CCCCC(=O)*)N1

T1: Peptide C (human PAR-2), N-terminal biotinylated (Human)
T1 construct: also called Peptide C N-Term
T1 peptide: Biotin-GGGGSSLIGKV

T2: Peptide A (human PAR-2), unbiotinylated (Human)
T2 construct: also called Peptide A No Biotin
T2 peptide: GTNRSSKGRSLIGKVDGT

T3: Peptide K (human PAR-1), unbiotinylated (Human)
T3 peptide: ATNATLDPRSFLLRNPND

T4: Peptide L (human PAR-3), unbiotinylated (Human)
T4 peptide: DTNNLAKPTLPIKTFRGA

T5: Peptide M (human PAR-4), unbiotinylated (Human)
T5 peptide: ESGSTGGGDDSTPSILPAP

T6: Peptide G (rat PAR-2), unbiotinylated (Rat (Rattus norvegicus))
T6 construct: also called Peptide G No Biotin
T6 peptide: GPNSKGRSLIGRLDTP

T7: Peptide H (rabbit PAR-2) (Rabbit (Oryctolagus cuniculus))
T7 peptide: GTNKTSKGRSLIGRNTGS

T8: Peptide I (dog PAR-2) (Dog (Canis familiaris))
T8 peptide: GTNRTSKGRSLIGKTDSS

T9: Peptide E (mouse PAR-2), N-terminal biotinylated (Mouse (Mus musculus), N-terminal biotin via G4S linker)
T9 construct: also called Peptide E N-Term
T9 peptide: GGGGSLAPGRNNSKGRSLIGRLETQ

T10: Peptide G (rat PAR-2), N-terminal biotinylated (Rat (Rattus norvegicus), N-terminal biotin via G4S linker)
T10 construct: also called Peptide G N-Term
T10 peptide: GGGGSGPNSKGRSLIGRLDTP

T11: Peptide G (rat PAR-2), C-terminal biotinylated (Rat (Rattus norvegicus), C-terminal biotin via G4S linker)
T11 construct: also called Peptide G C-Term
T11 peptide: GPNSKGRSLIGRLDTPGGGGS

T12: Peptide E (mouse PAR-2), unbiotinylated (Mouse (Mus musculus))
T12 construct: also called Peptide E No Biotin
T12 peptide: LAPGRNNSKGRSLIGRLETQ

T13: C-terminal biotinylated human PAR-2 peptide SEQ ID NO:872 (Gly-35 to Ala) (human, not fully specified; C-terminal biotin (K-B))
T13 construct: alanine-scan mutant
T13 peptide: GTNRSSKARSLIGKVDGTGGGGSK

T14: C-terminal biotinylated human PAR-2 peptide SEQ ID NO:875 (Leu-38 to Ala) (human, not fully specified; C-terminal biotin (K-B))
T14 construct: alanine-scan mutant
T14 peptide: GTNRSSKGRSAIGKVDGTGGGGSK


Assays:
[1] = molecular target: T1, Peptide C (human PAR-2), N-terminal …; assay: SPR, peptide immobilized
[2] = molecular target: T2, Peptide A (human PAR-2), unbiotinylated; assay: SPR, antibody captured
[3] = molecular target: T3, Peptide K (human PAR-1), unbiotinylated; assay: SPR, antibody captured
[4] = molecular target: T4, Peptide L (human PAR-3), unbiotinylated; assay: SPR, antibody captured
[5] = molecular target: T5, Peptide M (human PAR-4), unbiotinylated; assay: SPR, antibody captured
[6] = molecular target: T6, Peptide G (rat PAR-2), unbiotinylated; assay: SPR, antibody captured
Procedure: (§1) Equilibrium dissociation constants (KD values) for antigen binding to selected purified PAR-2 antibodies were determined by surface kinetics using a real-time surface plasmon resonance biosensor assay. Antibody was captured on either a rabbit anti-mouse IgG polyclonal antibody (GE Healthcare, Piscataway, N.J.) surface or a goat anti-human IgG polyclonal antibody (Jackson Immuno Research Lab, West Grove, Pa.) surface created through direct amine chemical coupling to a BIACORE™ CM5 sensor chip to form a captured antibody surface. […] Antigen-antibody binding and dissociation were monitored in real time at room temperature. Kinetic analysis was performed to calculate KD and half-life of antigen/antibody complex dissociation (Table 10). For those antibodies where no T_{1/2} value is shown, steady state analysis was used to calculate the KD value. NB: no binding observed under current experimental conditions. ND: not determined.

[7] = molecular target: T7, Peptide H (rabbit PAR-2); assay: SPR, antibody captured
Procedure: as §1

[8] = molecular target: T8, Peptide I (dog PAR-2); assay: SPR, antibody captured
Procedure: as §1

[9] = molecular target: T9, Peptide E (mouse PAR-2), N-terminal …; assay: peptide ELISA titration
Procedure: (§2) Anti-PAR-2 antibodies were tested for their ability to bind to the PAR-2 peptides. Various PAR-2 Peptides (Table 3) were coated onto 96-well plates at a concentration of 2 μg/ml and incubated overnight followed by blocking in a suitable blocking agent for one hour. […] Purified anti-PAR-2 antibodies were added to the plate coated with PAR-2 peptides to a final concentration ranging from 0.2 to 2.0 μg/ml and incubated for one hour at room temperature. Detection of bound antibodies was determined with Horse-Radish Peroxidase (HRP) conjugated anti-mouse or human IgG (Jackson Immuno Research Lab, West Grove, Pa.) and developed by standard colorimetric response using tetramethylbenzidine (TMB) substrate. Absorbance was read at OD₄₅₀ for 0.1 second.
(§3) In another experiment, selected anti-PAR-2 antibodies cloned onto human IgG4 were tested for binding to unbiotinylated and biotinylated forms of PAR-2 peptides (Peptides A, E, F and G; as described above). […] Absorbance values at 450 nm were analyzed using a sigmoidal dose-response model in GraphPad Prism (GraphPad Software, Inc., La Jolla, Calif.) and EC₅₀ values were reported (Table 9). EC₅₀ values are defined as the antibody concentration required to achieve 50% maximal binding to PAR-2 peptide.

[10] = molecular target: T6, Peptide G (rat PAR-2), unbiotinylated; assay: peptide ELISA titration
Procedure: as §2, §3

[11] = molecular target: T10, Peptide G (rat PAR-2), N-terminal …; assay: peptide ELISA titration
Procedure: as §2, §3

[12] = molecular target: T11, Peptide G (rat PAR-2), C-terminal …; assay: peptide ELISA titration
Procedure: as §2, §3

[13] = molecular target: T9, Peptide E (mouse PAR-2), N-terminal …; assay: SPR, peptide immobilized
[14] = molecular target: T10, Peptide G (rat PAR-2), N-terminal …; assay: SPR, peptide immobilized
[15] = molecular target: T12, Peptide E (mouse PAR-2), unbiotinylated; assay: peptide ELISA titration; ELISA titration, bivalent IgG on peptide-coated plate
Procedure: as §2, §3

[16] = molecular target: T13, C-terminal biotinylated human PAR-2 …; assay: BLI Exp2
Procedure: (§4) In order to more particularly identify the amino acids of PAR-2 with which the PAR-2 antibodies interact, an alanine scanning study was carried out using peptides comprising the activating PAR-2 protease cleavage site.
(§5) The ability of each peptide mutant to bind to PAR-2 antibodies was measured using biolayer interferometry (Octet Red; ForteBio). Each peptide (2.5 μg/ml) was captured on streptavidin coated biosensor tips (Octet SA sensor) for 10 seconds. To measure binding and dissociation between each peptide and PAR-2 antibody, the peptide-coated biosensors were contacted with 200 nM solutions of PAR-2 antibodies for 5 minutes (binding) followed by transfer to buffer with no antibody for 10 min (dissociation). […] The results are expressed as percent binding and percent T_{1/2} relative to WT peptide (Tables 24-28).

[17] = molecular target: T14, C-terminal biotinylated human PAR-2 …; assay: BLI Exp2
Procedure: as §4, §5

[18] = molecular target: full length human PAR-2 (human, UniProt P55085 26-397); assay: cell-based or functional assay
full length human PAR-2, sequence (P55085 26-397 G138A limits assumed): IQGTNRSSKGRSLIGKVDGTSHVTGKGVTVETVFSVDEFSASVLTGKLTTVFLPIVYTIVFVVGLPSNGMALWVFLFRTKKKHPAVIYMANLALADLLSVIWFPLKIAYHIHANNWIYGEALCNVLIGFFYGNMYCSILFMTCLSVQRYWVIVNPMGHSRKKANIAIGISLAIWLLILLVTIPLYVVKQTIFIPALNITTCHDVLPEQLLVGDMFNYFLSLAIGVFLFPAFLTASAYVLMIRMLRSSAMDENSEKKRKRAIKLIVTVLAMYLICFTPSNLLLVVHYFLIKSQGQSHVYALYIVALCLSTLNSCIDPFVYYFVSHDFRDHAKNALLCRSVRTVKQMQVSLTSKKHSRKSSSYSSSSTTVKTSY

Row | Binder | binding result [1] | Kd [2] [nM] | T1/2 [2] [s] | binding result [3] | binding result [4] | binding result [5] | Kd [6] [nM] | T1/2 [6] [s] | Kd [8] [nM] | T1/2 [8] [s] | EC50 [9] [nM] | EC50 [10] [nM] | EC50 [11] [nM] | EC50 [12] [nM] | Kd [13] [nM] | T1/2 [13] [s] | Kd [14] [nM] | T1/2 [14] [min] | EC50 [15] [nM] | binding result [7] | also measured
1 | H4H583P (antibody, human IgG4, V domains shown, also called H1H583P variable regions) VH: QVQLVESGGGVVQPGMSLRLSCTASGFTFRRYGMHWVRQAPGKGLEWVAVIWYDGSNKYYADSVKGRFTITRDNSKNTLYLQMNSLRAEDTAIYFCASEITIGDWFDPRGQGTLVTVSS VL: AIQMTQSPSSLSASVGDRVTITCRASQGIRNDLGWFQQKPGKVPKLLIYAASTLHSGVPSRFSGSGFGTDFTLTISSLQPEDFATYYCLQDFNYPLTFGGGTKVEIK | no binding | 37.1 | 22.2 | no binding | no binding | no binding | 530 | 4.2 | 320 | 9.6 | 0.014 | 0.012 | 0.015 | 0.63 | 1.68 | 660 | 1.49 | 13 | 0.019 |  | Kd [7]: 189 nM; T1/2 [7]: 10.2 s
2 | H4H584P (antibody, human IgG4, V domains shown, also called H1H584P variable regions) VH: QVQLVESGGGVVQPGRSLRLSCVASGFTFSRYGMHWVRQAPGKGLEWVVVISYDGINKYYADSVKGRFTISRDNSKNTVYLQMNSLRAEDTAVYYCAKGDFWSGYFDYWGQGTLVTVSS VL: DIVMTQTPLSSPVTLGQPASISCRSSQSLVHSDGNTYLSWLHQRPGQPPRLLIYKISNRFSGVPDRFSGSGAGTDFTLQISRVEAEDVGIYYCMQATQFPTFGGGTKVEIK | no binding | 22 | 43.8 | no binding | no binding | no binding | 246 | 7.8 |  |  | 0.511 | 0.013 | 0.012 | 0.015 | > 100 |  | 1.39 | 15 | 2.15 | no binding | 
3 | H4H579P (antibody, human IgG4, V domains shown, also called H1H579P variable regions) VH: QVQLVESGGGVVQPGRSLRLSCVASGFTFSRYGMHWVRQAPGKGLEWLIVISYDGINKYYADSVKGRFTISRDNSKNTVYLQMNSLRAEDTGVYYCAKGDFWSGYFDYWGQGTLVTVSS VL: DIVMTQTPLSSPVTLGQPASISCRSSQSLVHSDGNTYLSWLHQRPGQPPRLLIYKISNRFSGVPDRFSGSGAGTDFTLQISRVEAEDVGIYYCMQGTQFPTFGGGTKVEIK | no binding | 15 | 240 | no binding | no binding | no binding | 134 | 27 | 311 | 15.6 | 0.54 | 0.055 | 0.059 | 0.044 | 3.4 | 1200 | 1.16 | 38 |  |  | 

The next lines start with results.

Row | binding result [1] | Kd [2] [nM] | T1/2 [2] [s] | binding result [3] | binding result [4] | binding result [5] | Kd [6] [nM] | T1/2 [6] [s] | Kd [8] [nM] | T1/2 [8] [s] | EC50 [9] [nM] | EC50 [10] [nM] | EC50 [11] [nM] | EC50 [12] [nM] | Kd [13] [nM] | T1/2 [13] [s] | Kd [14] [nM] | T1/2 [14] [min] | EC50 [15] [nM] | binding result [7] | Binder | also measured
4 |  | 8.78 | 222 |  |  |  | 162 | 19.8 | 372 | 11.4 | 0.189 | 0.018 | 0.017 | 0.021 | > 100 |  | 1.36 | 35 |  |  | H4H585P (antibody, human IgG4, V domains shown, also called H1H585P variable regions) VH: QVQLVESGGGVVQPGRSLRLSCVASGFTFSRYGMHWVRQAPGKGLEWLIVISYDGINKYYADSVKGRFTISRDNSKNTVYLQMNSLRAEDTAVYYCAKGDFWSGYFDYWGQGTLVTVSS VL: DIVMTQTPLSSPVTLGQPASISCRSSQSLVHSDGNTYLSWLHQRPGQPPRLLIYKISNRFSGVPDRFSGSGAGTDFTLQISRVEAEDVGIYYCMQGTQFPTFGGGTKVEIK | 
5 |  | 9.44 | 84 |  |  |  | 40.2 | 37.8 | 143 | 4.2 | 0.032 | 0.02 | 0.019 | 0.013 | 1.13 | 1260 | 0.354 | 62 | 0.029 | no binding | H4H581P (antibody, human IgG4, V domains shown, also called mAb H4H581P; H1H581P variable regions) VH: QVQLVESGGGVVQPGRSLRLSCVASGFTFSRYGIHWVRQAPGKGLEWVIVISYDGINKYYADSVKGRFTISRDNSKNTVYLQMNSLRAEDTAVYYCAKGDFWSGYFDYWGQGTLVTVSS VL: DIVMTQTPLSSPVTLGQPASISCRSSQSLVHSDGNTYLSWLHQRPGQPPRLLIYKISNRFSGVPDRFSGSGAGTDFTLQISRVEAEDVGIYYCMQATQFPTFGGGTKVEIK | % Rel Binding [16]: 97%; % Rel T1/2 [16]: 117%; % Rel Binding [17]: 19%; % Rel T1/2 [17]: 0%; Kd [1]: > 100 nM; IC50, NF-kB-luciferase, 10 nM Human Trypsin 1 [18]: 7.4 nM; IC50, NF-kB-luciferase, 200 nM Factor Xa [18]: 5.3 nM; IC50, NF-kB-luciferase, 750 nM Lung Tryptase [18]: 1.1 nM
6 | no binding |  |  | no binding | no binding | no binding |  |  |  |  |  |  |  |  |  |  |  |  |  | no binding | H4H588N (antibody, human IgG4, V domains shown, also called H2M588N variable regions) VH: EVQLLESGGGLVQPGGSLRLSCAASGFTFSSYAMTWVRQAPGKGLYWVSAISGGRGSAYYADSVKGRFTISRDNSKNTLYLQMNSLRAEDTAVYYCAKEGDSGYDLAYWGRGTLVTVSS VL: DIQMTQSPSSLSASVGDRVTITCRARQGISNNLAWLQQKPGKAPKSLIYAASSLQSGIPSKFSGSGSGTYFTLTISSLQPEDFATYYCQQYKSSPLTFGGGTKVEIK | % Rel Binding [16]: 99%; % Rel T1/2 [16]: 253%; % Rel Binding [17]: 105%; % Rel T1/2 [17]: 42%; binding result [8]: no binding; IC50, NF-kB-luciferase, 10 nM Human Trypsin 1 [18]: 42.7 nM; IC50, NF-kB-luciferase, 200 nM Factor Xa [18]: 17.1 nM; IC50, NF-kB-luciferase, 750 nM Lung Tryptase [18]: 1.6 nM
